Assay results reported in publication PMC11767649.

Target: rhRKIP C133A mutant, histidine-tagged (human) (UniProt P30086)
Test: non-reducing SDS-PAGE; purified rhRKIP in sample loading buffer without β-mercaptoethanol or boiling; Coomassie Brilliant Blue staining or anti-His immunoblot

stoichiometry N: 2
Substance: rhRKIP C133A mutant, histidine-tagged (from UniProt P30086 1-187) (natural protein)
